This passage reports Simoa limit of detection and Kd results from US20250355001A1, “METHOD FOR DETECTING A TAU PROTEIN FRAGMENT IN A SAMPLE” (GTINVENT LIMITED, priority 2022, published 2025).

Assay [1] addresses full length human tau protein 2N4R (hT40) (human) (UniProt P10636). Nature of the assay: Simoa sandwich, capture S1G2, biotinylated detector.
The target is the same in assay [2]. Nature of the assay: SPR, hT40 immobilised, mAb analyte. In general terms: Surface plasmon resonance follows binding to a sensor surface in real time, without labels.
For assay [3] the target is unchanged. Nature of the assay: Simoa sandwich, capture S1D12, biotinylated detector.
The target is the same in assay [4]. The experiment in a line: Simoa sandwich, capture CB7, biotinylated detector.
Assay [5] has the same target. Nature of the assay: Simoa sandwich, capture Tau12, biotinylated detector.

full length human tau protein 2N4R (hT40) (human), sequence (P10636 other isoform, or with tags, fused parts or gaps limits assumed): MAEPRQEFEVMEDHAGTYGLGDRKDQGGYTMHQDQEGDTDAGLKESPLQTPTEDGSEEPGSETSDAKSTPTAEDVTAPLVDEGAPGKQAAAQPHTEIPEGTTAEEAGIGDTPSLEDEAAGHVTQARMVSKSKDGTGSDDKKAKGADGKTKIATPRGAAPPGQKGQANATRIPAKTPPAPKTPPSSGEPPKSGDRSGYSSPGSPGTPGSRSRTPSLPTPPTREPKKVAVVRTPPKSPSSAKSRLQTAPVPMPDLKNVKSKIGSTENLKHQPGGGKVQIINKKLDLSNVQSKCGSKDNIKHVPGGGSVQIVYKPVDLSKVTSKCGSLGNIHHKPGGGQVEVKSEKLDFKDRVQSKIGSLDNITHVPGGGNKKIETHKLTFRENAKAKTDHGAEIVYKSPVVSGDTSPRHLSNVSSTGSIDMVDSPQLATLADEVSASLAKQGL

In general, Kd refers to the free concentration of one partner at which half of the binding sites on the other are occupied at equilibrium, for simple one-to-one binding. A high value points to a looser complex. Consider Tau12 mAb (antibody), for which the figures for the Simoa limit of detection in assay [1] and in assay [3] were 1.6 pg/mL and 0.75 pg/mL, respectively. This substance also yielded a Kd in assay [2] of 1.44 nM.
On to Tau46 (antibody), for which the Simoa limit of detection in assay [1] and in assay [4] was 2.2 pg/mL each time.
Take BT2 (antibody): the Simoa limit of detection in assay [4] came to 0.75 pg/mL; in assay [3], 0.32 pg/mL.
HT7 (antibody): the Simoa limit of detection in assay [1] is 0.32 pg/mL; in assay [5] it was 2.2 pg/mL; in assay [4], 2.2 pg/mL; in assay [3], 0.32 pg/mL.
